Assays:
Experiment in all cases: purified protein
Format in all cases: biochemical, Dictyoglomus thermophilum
Conditions in all cases: 25 mM Tris-HCl pH 8, 0.05% Triton X-100, 75°C (standard reaction), substrate 0.1 to 1 mM
[1] = substrate: CC(=O)Oc1ccc([N+](=O)[O-])cc1
[2] = substrate: CCCC(=O)Oc1ccc([N+](=O)[O-])cc1
[3] = substrate: CCCCCCCC(=O)Oc1ccc([N+](=O)[O-])cc1
[4] = substrate: CCCCCCCCCC(=O)Oc1ccc([N+](=O)[O-])cc1
[5] = substrate: CCCCCCCCCCCC(=O)Oc1ccc([N+](=O)[O-])cc1

B1: EstDZ3 (Dictyoglomus thermophilum) (protein)
chain: MTENREPVVLKNQGQKIFGVIHIPEKTPAPFVLFCHGFTGTKIEPHRIFVKTAEALAKEGIGALRIDFRGSGDSEGSFKDMTVEGEVSDAMVAIEYLSQNNLVDKEKIGILGLSMGGAVASITSGRNPLIKSCVLWSAVCHFDIFFNRSPEEVSRIKDYGDFIDLGGNPVGKKFLSEIVNIKPLEEIKKRSIPVLIIHGSGDMVVPIQHAYDYFNGLKDTHKVKLEIIEGADHTFNSIEWEEKVIEKTVNWFKETL
notes: full-length ORF, 256 residues (modelled 1 to 256), no signal peptide; pLATE52 poly-histidine tag kept; E. coli BL21(DE3); heat treatment and Ni-NTA; forward primer encodes MTENREP
Km [1]: 300 ± 70 µM
Vmax [1]: 355 µmol/min/mg
kcat [1]: 740 s⁻¹
kcat/Km [1]: 2.43e+06 M⁻¹ s⁻¹
Km [2]: 150 ± 20 µM
Vmax [2]: 906 µmol/min/mg
kcat [2]: 1890 s⁻¹
kcat/Km [2]: 1.25e+07 M⁻¹ s⁻¹
Km [3]: 190 ± 10 µM
Vmax [3]: 501 µmol/min/mg
kcat [3]: 104 s⁻¹
kcat/Km [3]: 557000 M⁻¹ s⁻¹
Km [4]: 170 ± 10 µM
Vmax [4]: 387 µmol/min/mg
kcat [4]: 80 s⁻¹
kcat/Km [4]: 471000 M⁻¹ s⁻¹
Km [5]: 610 ± 140 µM
Vmax [5]: 357 µmol/min/mg
kcat [5]: 743 s⁻¹
kcat/Km [5]: 1.27e+06 M⁻¹ s⁻¹

Source: paper PMC5110521, “EstDZ3: A New Esterolytic Enzyme Exhibiting Remarkable Thermostability” (Frontiers in Microbiology, 2016)
